From paper PMC9482650, “Quantitative fragmentomics allow affinity mapping of interactomes” (Nature Communications, 2022)
Residue numbers refer to the chain shown, from its start.

Assays:
Assay in all cases: holdup assay
Parameters in all cases: key: below the threshold = too weak to quantify, mostly under pKd 3.1 to 4
Settings in all cases: plain residues with an end cap or a label only (N-terminal biotin on a linker: ado-ado)
AHNAK1, Q09666 = biological target: AHNAK1, Q09666
ARHGAP21, Q5T5U3 = biological target: T1, ARHGAP21, Q5T5U3
T1 sequence (Q5T5U3 45-169, limits assumed, looked up): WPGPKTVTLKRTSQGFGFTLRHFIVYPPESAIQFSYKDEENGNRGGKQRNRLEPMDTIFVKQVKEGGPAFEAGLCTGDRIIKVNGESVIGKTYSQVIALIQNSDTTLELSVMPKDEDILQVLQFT

CARD11, Q9BXL7 = biological target: T2, CARD11, Q9BXL7
T2 sequence (Q9BXL7 662-765, limits assumed, looked up): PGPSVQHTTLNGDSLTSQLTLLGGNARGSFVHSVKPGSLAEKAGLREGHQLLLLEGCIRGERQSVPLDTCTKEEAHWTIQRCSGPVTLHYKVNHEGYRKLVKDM

DLG4_2, P78352 = biological target: DLG4_2, P78352
FRMPD1, Q5SYB0 = biological target: T3, FRMPD1, Q5SYB0
T3 sequence (Q5SYB0 52-145, limits assumed, looked up): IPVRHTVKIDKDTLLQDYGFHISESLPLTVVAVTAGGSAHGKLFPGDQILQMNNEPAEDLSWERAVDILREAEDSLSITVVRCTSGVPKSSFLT

FRMPD2_1, Q68DX3 = biological target: FRMPD2_1, Q68DX3
FRMPD2_2, Q68DX3 = biological target: FRMPD2_2, Q68DX3
GRID2IP_1, A4D2P6 = biological target: GRID2IP_1, A4D2P6
GRIP1_4, Q9Y3R0 = biological target: T4, GRIP1_4, Q9Y3R0
T4 sequence (Q9Y3R0 467-571, limits assumed, looked up): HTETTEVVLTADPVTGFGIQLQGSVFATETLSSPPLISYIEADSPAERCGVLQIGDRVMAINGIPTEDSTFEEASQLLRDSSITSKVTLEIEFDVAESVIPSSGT

HTRA4, P83105 = biological target: T5, HTRA4, P83105
T5 sequence (P83105 378-476, limits assumed, looked up): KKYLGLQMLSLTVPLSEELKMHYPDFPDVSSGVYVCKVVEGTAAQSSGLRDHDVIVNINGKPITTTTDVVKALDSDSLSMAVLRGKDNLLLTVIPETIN

IL16_4, Q14005 = biological target: IL16_4, Q14005
Inadl_1, Q8NI35 = biological target: Inadl_1, Q8NI35
Inadl_3, Q8NI35 = biological target: Inadl_3, Q8NI35
Inadl_6, Q8NI35 = biological target: Inadl_6, Q8NI35
Inadl_8, Q8NI35 = biological target: Inadl_8, Q8NI35
Inadl_9, Q8NI35 = biological target: Inadl_9, Q8NI35
LIN7B, Q9HAP6 = biological target: T6, LIN7B, Q9HAP6
T6 sequence (Q9HAP6 88-185, limits assumed, looked up): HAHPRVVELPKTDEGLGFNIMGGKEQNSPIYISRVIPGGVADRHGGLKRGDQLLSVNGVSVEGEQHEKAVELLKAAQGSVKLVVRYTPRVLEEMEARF

LIN7C, Q9NUP9 = biological target: T7, LIN7C, Q9NUP9
T7 sequence (Q9NUP9 88-185, limits assumed, looked up): T6 sequence (Q9HAP6 88-185, limits assumed, looked up) with A2S, D13E, V35I, V40I, Q65H, S79K, R89K, A96S

LNX1_3, Q8TBB1 = biological target: LNX1_3, Q8TBB1
LNX2_3, Q8N448 = biological target: T8, LNX2_3, Q8N448
T8 sequence (Q8N448 463-564, limits assumed, looked up): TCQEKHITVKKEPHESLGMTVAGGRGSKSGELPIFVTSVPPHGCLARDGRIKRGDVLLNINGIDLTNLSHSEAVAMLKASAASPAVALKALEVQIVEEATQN

MAGI2_5, Q86UL8 = biological target: MAGI2_5, Q86UL8
MAST2, Q6P0Q8 = biological target: MAST2, Q6P0Q8
MPP2, Q14168 = biological target: T9, MPP2, Q14168
T9 sequence (Q14168 180-250, limits assumed, looked up): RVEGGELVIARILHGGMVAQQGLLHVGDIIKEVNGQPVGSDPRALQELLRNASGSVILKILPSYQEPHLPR

NHERF4_1, Q86UT5-2 = biological target: NHERF4_1, Q86UT5-2
NHERF4_4, Q86UT5 = biological target: NHERF4_4, Q86UT5
PDZD2_2, O15018 = biological target: T10, PDZD2_2, O15018
T10 sequence (O15018 329-429, limits assumed, looked up): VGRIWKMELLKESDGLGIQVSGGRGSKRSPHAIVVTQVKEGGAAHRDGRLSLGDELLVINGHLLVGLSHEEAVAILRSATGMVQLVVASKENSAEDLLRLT

PDZD7_3, Q9H5P4 = biological target: T11, PDZD7_3, Q9H5P4
T11 sequence (Q9H5P4 857-944, limits assumed, looked up): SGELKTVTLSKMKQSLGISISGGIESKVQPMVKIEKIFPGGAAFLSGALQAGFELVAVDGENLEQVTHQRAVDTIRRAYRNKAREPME

Chain of IL16_4, Q14005 (Q14005 1229-1329): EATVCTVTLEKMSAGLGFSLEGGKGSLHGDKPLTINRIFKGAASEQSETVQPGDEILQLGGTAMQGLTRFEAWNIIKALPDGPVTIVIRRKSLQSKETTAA
Chain of Inadl_8, Q8NI35 (Q8NI35 1425-1530): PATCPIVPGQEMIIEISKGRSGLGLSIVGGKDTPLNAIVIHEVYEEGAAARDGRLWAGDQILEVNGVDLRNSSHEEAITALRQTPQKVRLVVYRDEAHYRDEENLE
Chain of MAST2, Q6P0Q8 (Q6P0Q8 1099-1202): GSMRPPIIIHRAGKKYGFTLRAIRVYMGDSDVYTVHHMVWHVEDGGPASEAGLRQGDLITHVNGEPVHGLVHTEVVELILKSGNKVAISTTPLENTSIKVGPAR
Chain of LNX1_3, Q8TBB1 (Q8TBB1 500-596): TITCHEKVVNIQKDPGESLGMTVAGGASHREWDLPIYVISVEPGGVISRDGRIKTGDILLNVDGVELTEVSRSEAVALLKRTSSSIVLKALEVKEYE
Chain of DLG4_2, P78352 (P78352 155-259): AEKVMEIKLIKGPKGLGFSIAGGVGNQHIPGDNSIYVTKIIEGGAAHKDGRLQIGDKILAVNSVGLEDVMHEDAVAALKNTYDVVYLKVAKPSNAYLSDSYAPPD
Chain of NHERF4_1, Q86UT5-2 (Q86UT5 other isoform, or with tags, fused parts or gaps): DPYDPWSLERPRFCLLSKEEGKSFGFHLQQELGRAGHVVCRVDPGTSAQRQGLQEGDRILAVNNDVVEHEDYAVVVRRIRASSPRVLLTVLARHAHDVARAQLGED
Chain of Inadl_6, Q8NI35 (Q8NI35 1058-1167): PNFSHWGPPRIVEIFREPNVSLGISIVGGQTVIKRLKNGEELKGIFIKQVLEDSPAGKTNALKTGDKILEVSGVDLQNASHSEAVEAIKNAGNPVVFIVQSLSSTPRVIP
Chain of AHNAK1, Q09666 (Q09666 4-100): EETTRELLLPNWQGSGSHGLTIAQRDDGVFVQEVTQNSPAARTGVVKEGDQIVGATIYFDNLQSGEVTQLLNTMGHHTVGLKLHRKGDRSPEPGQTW
Chain of GRID2IP_1, A4D2P6 (A4D2P6 1-87): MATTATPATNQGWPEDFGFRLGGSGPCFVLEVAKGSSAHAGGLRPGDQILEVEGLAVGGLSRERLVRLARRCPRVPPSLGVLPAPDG
Chain of FRMPD2_1, Q68DX3 (Q68DX3 770-861): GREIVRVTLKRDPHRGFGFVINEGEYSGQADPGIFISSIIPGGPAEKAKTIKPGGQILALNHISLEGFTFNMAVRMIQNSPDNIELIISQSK
Chain of Inadl_1, Q8NI35 (Q8NI35 113-229): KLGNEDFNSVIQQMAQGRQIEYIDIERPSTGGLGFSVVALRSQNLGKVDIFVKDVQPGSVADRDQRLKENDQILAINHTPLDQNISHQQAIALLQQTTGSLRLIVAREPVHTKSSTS
Chain of NHERF4_4, Q86UT5 (Q86UT5 464-550): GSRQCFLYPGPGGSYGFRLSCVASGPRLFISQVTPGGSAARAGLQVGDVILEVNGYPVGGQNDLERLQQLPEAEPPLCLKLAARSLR
Chain of Inadl_9, Q8NI35 (Q8NI35 1530-1615): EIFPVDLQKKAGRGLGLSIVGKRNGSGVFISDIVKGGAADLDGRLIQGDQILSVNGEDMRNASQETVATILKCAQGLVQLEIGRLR
Chain of MAGI2_5, Q86UL8 (Q86UL8 915-1017): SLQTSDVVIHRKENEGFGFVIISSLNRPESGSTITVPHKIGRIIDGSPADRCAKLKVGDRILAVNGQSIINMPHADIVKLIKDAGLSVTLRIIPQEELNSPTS
Chain of Inadl_3, Q8NI35 (Q8NI35 359-469): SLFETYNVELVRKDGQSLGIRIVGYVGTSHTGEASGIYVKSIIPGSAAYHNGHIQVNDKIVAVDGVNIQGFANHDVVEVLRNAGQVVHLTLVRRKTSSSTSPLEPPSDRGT
Chain of FRMPD2_2, Q68DX3 (Q68DX3 944-1038): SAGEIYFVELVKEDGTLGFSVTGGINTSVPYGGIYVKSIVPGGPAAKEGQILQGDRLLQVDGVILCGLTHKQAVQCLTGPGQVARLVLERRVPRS

Binder | pKd (AHNAK1, Q09666) | pKd (ARHGAP21, Q5T5U3) | pKd (CARD11, Q9BXL7) | pKd (DLG4_2, P78352) | pKd (FRMPD1, Q5SYB0) | pKd (FRMPD2_1, Q68DX3) | pKd (FRMPD2_2, Q68DX3) | pKd (GRID2IP_1, A4D2P6) | pKd (GRIP1_4, Q9Y3R0) | pKd (HTRA4, P83105) | pKd (IL16_4, Q14005) | pKd (Inadl_1, Q8NI35) | pKd (Inadl_3, Q8NI35) | pKd (Inadl_6, Q8NI35) | pKd (Inadl_8, Q8NI35) | pKd (Inadl_9, Q8NI35) | pKd (LIN7B, Q9HAP6) | pKd (LIN7C, Q9NUP9) | pKd (LNX1_3, Q8TBB1) | pKd (LNX2_3, Q8N448) | also measured
RDYTQSSSSL [GRM5, P41594] | below the threshold | 4.17 | below the threshold | below the threshold | below the threshold | below the threshold | below the threshold | below the threshold | below the threshold | 3.85 | below the threshold | below the threshold | below the threshold | below the threshold | below the threshold | below the threshold | 3.52 | below the threshold | below the threshold | below the threshold | pKd (MAGI2_5, Q86UL8): below the threshold; pKd (MAST2, Q6P0Q8): 5.15; pKd (MPP2, Q14168): below the threshold; pKd (NHERF4_1, Q86UT5-2): 4.13; pKd (NHERF4_4, Q86UT5): below the threshold; pKd (PDZD2_2, O15018): 3.83; pKd (PDZD7_3, Q9H5P4): below the threshold
DSEEELPTRL [GRK6, P43250] | below the threshold | 4.22 | below the threshold | below the threshold | below the threshold | below the threshold | below the threshold | below the threshold | below the threshold | 3.92 | below the threshold | below the threshold | below the threshold | below the threshold | below the threshold | 3.69 | below the threshold | below the threshold | below the threshold | below the threshold | pKd (MAGI2_5, Q86UL8): below the threshold; pKd (MAST2, Q6P0Q8): 4.83; pKd (MPP2, Q14168): below the threshold; pKd (NHERF4_1, Q86UT5-2): 4.22; pKd (NHERF4_4, Q86UT5): below the threshold; pKd (PDZD2_2, O15018): 3.71; pKd (PDZD7_3, Q9H5P4): 4.18
KPDKQEEFYA [SDC3, O75056] | below the threshold | below the threshold | below the threshold | below the threshold | below the threshold | below the threshold | below the threshold | below the threshold | below the threshold | below the threshold | below the threshold | below the threshold | below the threshold | below the threshold | below the threshold | below the threshold | 3.78 | below the threshold | below the threshold | below the threshold | pKd (MAGI2_5, Q86UL8): below the threshold; pKd (MAST2, Q6P0Q8): 4.17; pKd (MPP2, Q14168): below the threshold; pKd (NHERF4_1, Q86UT5-2): below the threshold; pKd (NHERF4_4, Q86UT5): below the threshold; pKd (PDZD2_2, O15018): below the threshold; pKd (PDZD7_3, Q9H5P4): below the threshold
FVFESRKEIL [TBPL1, P62380] | below the threshold | 3.83 | below the threshold | below the threshold | below the threshold | below the threshold | below the threshold | below the threshold | below the threshold | below the threshold | below the threshold | below the threshold | below the threshold | below the threshold | below the threshold | below the threshold | below the threshold | 3.95 | below the threshold | below the threshold | pKd (MAGI2_5, Q86UL8): below the threshold; pKd (MAST2, Q6P0Q8): 4.95; pKd (MPP2, Q14168): below the threshold; pKd (NHERF4_1, Q86UT5-2): 4.08; pKd (NHERF4_4, Q86UT5): below the threshold; pKd (PDZD2_2, O15018): below the threshold; pKd (PDZD7_3, Q9H5P4): 3.99
PLATCDETSI [SEMA4F, O95754] | below the threshold | below the threshold | below the threshold | 3.67 | below the threshold | below the threshold | 3.53 | below the threshold | below the threshold | below the threshold | below the threshold | below the threshold | below the threshold | below the threshold | below the threshold | below the threshold | 3.78 | below the threshold | below the threshold | below the threshold | pKd (MAGI2_5, Q86UL8): below the threshold; pKd (MAST2, Q6P0Q8): 5.42; pKd (MPP2, Q14168): below the threshold; pKd (NHERF4_1, Q86UT5-2): below the threshold; pKd (NHERF4_4, Q86UT5): below the threshold; pKd (PDZD2_2, O15018): 4.47; pKd (PDZD7_3, Q9H5P4): 4.43
